Laboratory results from the supplement of paper PMC9112550, “Optimization of the antimicrobial peptide Bac7 by deep mutational scanning” (BMC Biology, 2022).

Tested on: Escherichia coli TOP10
Assay: shrunken log2 fold change of peptide-encoding DNA abundance (4.5 h post-induction vs induction); higher = less antimicrobial activity (less host growth inhibition)
Conditions: time post-induction: 4.5 h; library: site-saturation at positions 5, 18, 19, 20
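Also: peptides expressed intracellularly from a pBAD plasmid library in pooled LB shake-flask culture, induced with 0.3% L-arabinose, DNA abundance read by NGS, three biological replicates, DESeq2 with apeglm shrinkage.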

RRIRHRPPRLPRPRPRPWPWPRP
shrunken log2 fold change: 0.199

RRIRHRPPRLPRPRPRPWQHPRP
shrunken log2 fold change: -0.0597

RRIRHRPPRLPRPRPRPWQSPRP
shrunken log2 fold change: -0.0359

RRIRHRPPRLPRPRPRPWRHPRP
shrunken log2 fold change: -0.00865

RRIRHRPPRLPRPRPRPWSDPRP
shrunken log2 fold change: -0.138

RRIRHRPPRLPRPRPRPWVCPRP
shrunken log2 fold change: -0.044

RRIRHRPPRLPRPRPRPWWHPRP
shrunken log2 fold change: -0.113

RRIRHRPPRLPRPRPRPWWMPRP
shrunken log2 fold change: 0.0619

RRIRHRPPRLPRPRPRPYAVPRP
shrunken log2 fold change: -0.0274

RRIRHRPPRLPRPRPRPYAYPRP
shrunken log2 fold change: -0.596

RRIRHRPPRLPRPRPRPYDGPRP
shrunken log2 fold change: -0.00992

RRIRHRPPRLPRPRPRPYDIPRP
shrunken log2 fold change: -0.387

RRIRHRPPRLPRPRPRPYDNPRP
shrunken log2 fold change: -0.0737

RRIRHRPPRLPRPRPRPYESPRP
shrunken log2 fold change: -0.0531

RRIRHRPPRLPRPRPRPYFTPRP
shrunken log2 fold change: -0.679

RRIRHRPPRLPRPRPRPYFWPRP
shrunken log2 fold change: -0.258

RRIRHRPPRLPRPRPRPYGMPRP
shrunken log2 fold change: -0.0262

RRIRHRPPRLPRPRPRPYHFPRP
shrunken log2 fold change: -0.686

RRIRHRPPRLPRPRPRPYHQPRP
shrunken log2 fold change: -0.981

RRIRHRPPRLPRPRPRPYKEPRP
shrunken log2 fold change: -0.00664

RRIRHRPPRLPRPRPRPYKTPRP
shrunken log2 fold change: -0.00968

RRIRHRPPRLPRPRPRPYLYPRP
shrunken log2 fold change: -0.482

RRIRHRPPRLPRPRPRPYPGPRP
shrunken log2 fold change: -0.216

RRIRHRPPRLPRPRPRPYPWPRP
shrunken log2 fold change: -0.113

RRIRHRPPRLPRPRPRPYQFPRP
shrunken log2 fold change: -0.0129

RRIRHRPPRLPRPRPRPYRPPRP
shrunken log2 fold change: -0.115

RRIRHRPPRLPRPRPRPYRWPRP
shrunken log2 fold change: -0.00879

RRIRHRPPRLPRPRPRPYSIPRP
shrunken log2 fold change: -9.97e-05

RRIRHRPPRLPRPRPRPYSVPRP
shrunken log2 fold change: -0.481

RRIRHRPPRLPRPRPRPYSWPRP
shrunken log2 fold change: -0.345

RRIRHRPPRLPRPRPRPYTAPRP
shrunken log2 fold change: -0.735

RRIRHRPPRLPRPRPRPYVIPRP
shrunken log2 fold change: -0.00839

RRIRHRPPRLPRPRPRPYWNPRP
shrunken log2 fold change: -0.98

RRIRHRPPRLPRPRPRPYWTPRP
shrunken log2 fold change: 0.0019

RRIRHRPPRLPRPRPRPYYKPRP
shrunken log2 fold change: -0.913

RRIRHRPPRLPRPRPRPYYTPRP
shrunken log2 fold change: -0.0493

RRIRIRPPRLPRPRPRPACPPRP
shrunken log2 fold change: -0.146

RRIRIRPPRLPRPRPRPADHPRP
shrunken log2 fold change: -0.0431

RRIRIRPPRLPRPRPRPADLPRP
shrunken log2 fold change: 0.0446

RRIRIRPPRLPRPRPRPAEDPRP
shrunken log2 fold change: -0.0521

RRIRIRPPRLPRPRPRPAFLPRP
shrunken log2 fold change: -0.279

RRIRIRPPRLPRPRPRPAFPPRP
shrunken log2 fold change: -0.0288

RRIRIRPPRLPRPRPRPAFYPRP
shrunken log2 fold change: -0.387

RRIRIRPPRLPRPRPRPAHPPRP
shrunken log2 fold change: 0.239

RRIRIRPPRLPRPRPRPAIPPRP
shrunken log2 fold change: -0.169

RRIRIRPPRLPRPRPRPAKGPRP
shrunken log2 fold change: -0.224

RRIRIRPPRLPRPRPRPAKMPRP
shrunken log2 fold change: -0.101

RRIRIRPPRLPRPRPRPALMPRP
shrunken log2 fold change: -0.028

RRIRIRPPRLPRPRPRPALSPRP
shrunken log2 fold change: 0.114

RRIRIRPPRLPRPRPRPANTPRP
shrunken log2 fold change: 0.027

RRIRIRPPRLPRPRPRPAPIPRP
shrunken log2 fold change: -0.0266

RRIRIRPPRLPRPRPRPAPNPRP
shrunken log2 fold change: 0.0272

RRIRIRPPRLPRPRPRPAQHPRP
shrunken log2 fold change: -0.0384

RRIRIRPPRLPRPRPRPASEPRP
shrunken log2 fold change: 0.149

RRIRIRPPRLPRPRPRPASWPRP
shrunken log2 fold change: 0.0913

RRIRIRPPRLPRPRPRPATIPRP
shrunken log2 fold change: -0.201

RRIRIRPPRLPRPRPRPATNPRP
shrunken log2 fold change: -0.339

RRIRIRPPRLPRPRPRPAWQPRP
shrunken log2 fold change: 0.342

RRIRIRPPRLPRPRPRPCACPRP
shrunken log2 fold change: -0.889

RRIRIRPPRLPRPRPRPCAVPRP
shrunken log2 fold change: -0.431

RRIRIRPPRLPRPRPRPCELPRP
shrunken log2 fold change: -0.254

RRIRIRPPRLPRPRPRPCEQPRP
shrunken log2 fold change: 0.0927

RRIRIRPPRLPRPRPRPCETPRP
shrunken log2 fold change: 0.105

RRIRIRPPRLPRPRPRPCFGPRP
shrunken log2 fold change: -0.415

RRIRIRPPRLPRPRPRPCFHPRP
shrunken log2 fold change: -0.532

RRIRIRPPRLPRPRPRPCFTPRP
shrunken log2 fold change: -0.519

RRIRIRPPRLPRPRPRPCGDPRP
shrunken log2 fold change: -0.0271

RRIRIRPPRLPRPRPRPCHLPRP
shrunken log2 fold change: -0.281

RRIRIRPPRLPRPRPRPCIDPRP
shrunken log2 fold change: -0.0398

RRIRIRPPRLPRPRPRPCKLPRP
shrunken log2 fold change: -0.167

RRIRIRPPRLPRPRPRPCKWPRP
shrunken log2 fold change: -0.38

RRIRIRPPRLPRPRPRPCNCPRP
shrunken log2 fold change: 0.174

RRIRIRPPRLPRPRPRPCQNPRP
shrunken log2 fold change: -0.282

RRIRIRPPRLPRPRPRPCQVPRP
shrunken log2 fold change: -0.0176

RRIRIRPPRLPRPRPRPCRKPRP
shrunken log2 fold change: -0.0747
